We go through 22 sequences from a protein production outcome set (Wang et al. 2014).
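Also: failed if final PepcDB status was selected cloned or expressed and not failed if soluble or beyond.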

This data set in a line: label from the status in PepcDB records.
Regarding “MNSQPRHFAPLARLLHWLMALLIIAMLFIGAGMVASVSARHEWLIHLHKPLGIAILLLVLVRLWVRFYTRQPPLPADLPGWQVLAAKASHVLLYALMLSLPLLGWGMISAAGDPVMLGSSLQLPAILPANAQLFAVLRKAHGYLAYLLFFTVLLHLAAALFHGWVRRDGVLQSMLRGRG”, the protein production result is “not failed”.

“MLDLVAAFIALTTLLTYVNYRFIRLPPTIGVMATALVFSLIVQGLSELGYPILEVEMQEIIRRIDFSEVLMTWFLPALLFAGALHVDLSDLRSYKWPIGLLATAGVLIATFVIGGLAYYTFPLFGWQVDFIYCLLFGALISPTDPIAVLGILKSAGAPKPLATTIVGESLFNDGTAVVVFAIILGILQLGEAPTVSATAILFVQEAIGGVVFGAVLGYGVFVMMRGIDQYQVEVMLTLALVIGGAALAARLHVSAPIAMVVAGLIIGNHGRHYAMSDETRRYVDKFWELIDEILNALLFALIGLELLLLPFSWLHVAAAFALGGAVLVSRLLTVGPAILVLRRFRGANRQVPAGTIRILVWGGLRGGVSVALALSLPLGPERDLILSLTYIVVLVSILLQGLSIGPLVRRIYAGQPLEKSEGAH”: the protein production result is “failed”.

Consider “MDKNIFNILKKYFGYSSFRRGQENIIQSILDGNDTFAIMPTGGGKSICYQVPALYMKGLTIVITPLISLMKDQVDTLRENGVNASYINSTLSSKETNDILMSALSGHLKILYVAPERLEQDYFRNAIKDLTISMVAIDEAHCVSQWGHDFRVSYKRIVPFINIFDKRPIVAAFTATATDEVKKDIINLLELKEPNCFITGFDRDNLFFSIVKNENKFDFITKYLSKHKELSGIIYAATRKEVDSLHQKLISQGYSVGKYHAGMGDKERSESQDLFLYDETKLMIATNAFGMGIDKSNVRFVIHYNMPKNLESYYQEAGRAGRDGEKSECIILFSGQDIQIQKFLIKQSIPSFDRQRIELKKLNDMINYCMTTSCLRKYILNYFGENYEVENCDNCINCTGNVEIVDITLEAQKIISCIYRMGQNFGVTMIAEVLKGSKNSKVLRFNFDKLSTYGIMKDCTLKQITNLINTLIADGYLYLSDSEYATVKMSQKSIEVLKGYKKVVQKIHIVEELSLSTDNTLFEILKALRLEIARRENVPPYIIFSDSVLSEMCKYYPKDKNSMLQIKGVGEIKYNKYGEIFEEKIREYIKETNLTPEDNNKGTLKVPELLSKKIPTHIETFNLYKKGITIADMAKIRNLSIPTIQEHILKCANEGLNVNLDAYIPAEYKDLIYEKIRILGTSKLRPIKDALPDDVDYMAIKAAICKYTSKNKAI”, for which the protein production result was “failed”.

For “MRAARLIKMVLLLQSRPTMTAAELARELEVSERTVTRDAQALSEAGVPVYAERGRAGGYRLVGGYRTRLTGLARGEAEALFLSGVPGALREMGLEDAASAARLKVSAALLPSLRDASRTAAQRFHLDAPNWFREPETPELLPAVADAVWDDRRVAARYRRGTDEVVRELEPYGLVLKAGVWYLCARVAGTAGDGPFRVYRIDRFTAVEAGEERFVRDDGFDLPAFWAERAEQFARSILRAEVVVRLSERGVRGLPYAVDALSAREALEAAGAPDADGWVTVALPVESEEVAHAQLRGLGPEVEVLAPAALRERFAREARRLAELYGG”, the protein production entry is reported as “failed”.

On to “MESITQIYRIGYGPSSSHTIGPRRAAEMFLDRNPRATSFRVTLYGSLAATGKGHLTDAAILAVLEAKAPTEIVWKPEIFQNFHPNGMLFESFDKEGKQLDDWLIYSIGGGVLANEHFNEQ”, for which the protein production entry is given as “not failed”.

Regarding “KYANGTFFTYRPEAWDWMYTVAEEFDTIVAGLFGLITGGLLSVDSIAGEFENGTISRLYSLPINRWEIYFGKVIEKI”, the protein production result was “failed”.

For the sequence “MSAQDTQSLGVWSDCLTLLRLELLRAVPKSAVGLGCGKKIHANGILDEIFFPLDISIASAYVKTKMNFNPPTLQHLAGRSLMKDEALAISALQDLPMQLFPPLFKDAFTSKQSNILKQMVAAWPFPCLPVGGLMETPPHLETLKAVLDGLDLLMKQKVRLRMWKLQVLDLRDAHHDFWKGYTGIQDLVSSLDVIGKTQPVGNHPIIGGKQVMTVLMNLSFTSRHPSKYIKYLCHWAKQRKNVIQVICQKLEFGAIPAYDSLNVLGVFDLGSIQELEINKCWDMCTLALLAPGLGQMKNLQKLLLKEICITVDWPWDQKTEGLCVKQIFFQFSKLRNLQHLYLNDVYFLNEHLDQVLRCLESPLETLAITHCMLSQSDMKYLSQCPSIHQLKHLDLSGVTFINLSHPFLRSLLERVTATLKTLKLNGCMIMDFQIRALLPVLSQCSQLTEVNFEENSLSMDSLKKLLQHTANLTHLTLEKYPAPDEVYDDTGNVIPHRFIQLCSELMDTLKILRQPNHVYFVSKKCLDCHKYFIYNLEAMLCSCWQ”, the protein production result is “failed”.

For “MIYGILSKNLGMPTPTFLVCPDVVKFENVGQIAVVNGMVYLGGSVGIDKSGTLHKGLEEQTRQTFDNIRKCLEYANSGLDYIVSLNIFLSTSLSDSEEARFNELYREVFCVPATRPCRCCVRAQLQEGLLVEVVNVVAAQK”, the protein production result was “not failed”.

As to “ATDVAARGLDISGVTHVYNYDIPQDPESYVHRIGRTGRAGKEGMAITFVQPREMGYLRIVEETTKKRMQPLQAPTWDEAFAGQLRVATEKIQEAITEENLADYKTFANELLEKYDATDIAAAMLKMLAKEPDKTPVHITEERPLPSRGGGGYKGK”, the protein production entry was “not failed”.

Take “MRVSMTLFRSKENHRMLNNFAKLNGGDDVRMGADVPADALVDRLLVGFFYGPSDRLPEVLHVSNQLVRTKESYPFLPFCASQSHIWKPGDPLRHLEPFTLNPWCIIPYVNPRSQDFPFPELNEIKSQQLYFDHLLGIKKLPTMTLDVPKSHHFQPKLSRLKTHHNFPYLADFVIKVPTTIFSFIVAISLLL”: the protein production result is given as “failed”.

“MNNVTTTLTDTTWYKAGTITDVPENGGACAMIQGKQIAIFNFTRRDEWFATDNLCPHKQQMILSRGMIGDMSEEPKVACPFHKKSFSLKDGHCMSGDDYTIKTYPIKVEDGLIFIGLNE”: the protein production result is listed as “failed”.

For “MGHHHHHHSHMNSAEQTVTWLITLGVLESPKKTISDPEGFLQASLKDGVVLCRLLERLLPGTIEKVYPEPRSESECLSNIREFLRGCGASLRLELLFPPSQPPQHLVTTILLSASTFDANDLYQGQNFNKVLSSLVTLNKVTADIGLGSDSVCARPSSHRIKSFDSLGSQSLHTR”, the protein production entry is given as “failed”.

As to “MKPSHQQQKQASAAKDEKKDIIPLSAEKADGAEGWLNNSTILYTASNPTKTELFPYRIFTGKAKKLYQTDGQIVDVQINAREQMILLQITHSQKTAVVLLNAEGETLYEKDYETYELEAAWNQYDPYQMMVTEFNENWDFHTYQVNAKKDESFLSPVQVPFIHWTSKNTFDYVKEGRDDKTGPLYTFDTASKTEQKLEDNVLFFDSFHQMSFTVKSASGGKGTYQFKTPQSTSPVTAKWPLQAKYTSLAPMEYDYDEAGSLFYTFKQSGDAYKLAAINVASGETKDLVSLREMEPIQISPNGKYALYGFHFEQIILLKSHETKQLIIDQKEMELEHHHHHH”, the protein production result is recorded as “failed”.

On to “MLTLAPCGRGPCAARGEGASRPVLTKSHSSSRLKPTSAGQHPGAGRGPLAWGMTEPVPVAPFPSVFGGVQQLRPDVFRVRLPLVNIFLMGVPGGDWVLVDTGMPGTAGLIRQAAAQVYGARAPQAIVLTHGHFDHIGALHALLAEWNVPVYAHPDELPHLTGEVPYRFPDPTVGGLMSLTSPLFLPGPYDFRPQVRTLPEDGTVPELPGWRWVHTPGHTEGHVSLWREADRLLIAGDAVVTTPQETVPGALASTPTVLRRPPAYYTPNWNATRDSVRTLAALRPALVATGHGHPLTDDSLGDALTRLADDFDHDPNGRPAHGWYLGHPAPMQKPRPGEPDPMRTLFLGALGAAGALWLLGRRRR”, for which the protein production entry is “failed”.

Consider “MVSLIAKIHRRRAYLTVIAIMTFIVRLIPSRNFTLAGNDAYIHHDIVMRIAREGLGIIGHDIPSLMGLKAYAYPPLFHVMGYGLYLLFRSELVFFFISPLLGTATVLVIYKVARETFEREEVALLSAFLFSMVPSFVARTSVFIPESMGLLLTSGILYMLVKYLKTTPGYPDIDKFELKAFSNLFRGDLRYILGGLALFVIYLFTHRGWVFLLIALLLLAVTFLTPSFRKRPLEFGLIFLLIGAGIIEFITFAARFQSVPVTILGFPKWMGVLQLILGIYGASLLLRSKNPIHRFLIIWATAFMIIGTYSFRFRDPYAAIPLSLMGGYAFSEVKGRLYASKRFKSYSIMKRDVKPFLRTGIFALLVLMPLAQGAAIAYTGVTTPSPQQNAAFRWINDNTPQDAVFLSAIEDSYSLIGNTHRRDVLLWKTVYEGFMGSAPSLKENTMTRDEVSAIFQSSIPSETSYLLERNNISYIYISKSMHMKGIGLQLPVDPHFKTCFVSGDVSVYRYIKNPGIQSNYSSITVNGEDGKVVEFIEKFWNGYSQGTEPSHQGVSTL”, for which the protein production entry is given as “failed”.

On to “MEMYFKRMKDEWTGLVEQADPPIRAKAAEIAVAHAHYLSIEFYRIVRIDPHAEEFLSNEQVERQLKSAMERWIINVLSAQVDDVERLIQIQHTVAEVHARIGIPVEIVEMGFRVLKKILYPVIFSSDYSAAEKLQVYHFSINSIDIAMEVMTRAFTFSDSSASKEDENYRIFSLLENAEEEKERQIASILSWEIDIIYKILLDSDLGSSLPLSQADFGLWFNHKGRHYFSGIAEVGHISRLIQDFDGIFNQTMRNTRNLNNRSLRVKFLLQIRNTVSQIITLLRELFEEVSRHEVGMDVLTKLLNRRFLPTIFKREIAHANRTGTPLSVLIIDVDKFKEINDTWGHNTGDEILRKVSQAFYDNVRSSDYVFRYGGDEFIIVLTEASENETLRTAERIRSRVEKTKLKAANGEDIALSLSIGAAMFNGHPDYERLIQIADEALYIAKRRGRNRVELWKASL”, for which the protein production entry was “failed”.

Regarding “DPQFHREGDDIVVEREIKFTDAALGASLDVPTLEGTKRVKVPAGIQSGTKIRLKGLGFPHMGKTAKGDLYVHINVSVPRSLSADQKAILEKLREAGL”, the protein production entry is “failed”.

Take “DAVELFKKANAMLDEDEDERVDEAALRQLTEMGFPENRATKALQLNHMSVPQAMEWLIEHAEDPTIDTPL”: the protein production result is given as “not failed”.

Turning to “MMEDDGQPRTLYVGNLSRDVTEVLILQLFSQIGPCKSCKMITEHTSNDPYCFVEFYEHRDAAAALAAMNGRKILGKEVKVNWATTPSSQK”, the protein production entry is on record as “not failed”.

Consider “MPGKGEGSPVGIAILGYGTVGSQVLRLLTENHNDFQHRAGGPLEIKGVAASSVEKHRGSLADQLGLLTDDARSLIARDDVDIVVEVIGGIDYPRELILEALHSGKSVVTANKALVAAHSEELAAAADEAGVDLYFEAAVAAAIPVLGPLRRSLAGDQIQSVAGIVNGTTNFILDAMDSTGASYDDMLAEATRLGYAEADPTADVEGHDAASKAAILASLAFHTRVTYADVYCEGISKITADDINAAKEAGFTIKLLAICERLNVDGVEKVSARVHPTLVPRNHPLASVDKSFNAIFVEAEAAGRLMFYGNGAGGNPTASAVLGDIVGAARNKVFGGRAPGESTYADLPIAPFGEVPTRFHIDMEVEDRVGVLADLAKTFSNHGISLRTVRQAEKDGHARLIVVTHTAKESELEATVEQIKNSDSVKKINSVIRLAGLEHHHHHH”, for which the protein production result is on record as “not failed”.

“MGITRKYIANLKDLPTRVQDENDCTSEPFTKPRLCCKMVNKIRNTLVSTETFLQKENITLDTYKRIIRDLVIHLDRVTTKVFVNSLPYNVMDDLGLQECEAFVLKWSEELRKLQSEYRNHLDQISNIERLRRSLNVCLKTREDQIQKVQKEFQWFINILKSLPKSSVCQDGFARIELLNLYRQWKKGQLISMLPIMDFIMKTLLKEKDSILKRKLQPKSA”: the protein production result was “failed”.

With “MTHNIHDNISQWMKSNEETPIVMSSRIRLARNLENHVHPLMYATENDGFRVINEVQDALPNFELMRLDQMDQQSKMKMVAKHLISPELIKQPAAAVLVNDDESLSVMINEEDHIRIQAMGTDTTLQALYNQASSIDDELDRSLDISYDEQLGYLTTCPTNIGTGMRASVMLHLPGLSIMKRMTRIAQTINRFGYTIRGIYGEGSQVYGHTYQVSNQLTLGKSELEIIETLTEVVNQIIHEEKQIRQKLDTYNQLETQDRVFRSLGILQNCRMITMEEASYRLSEVKLGIDLNYIELQNFKFNELMVAIQSPFLLDEEDDKSVKEKRADILREHIK”, the protein production entry was “failed”.
